Molecular target: T1, MqsA N97A/R101A N97A;R101A (Escherichia coli K-12?) (UniProt Q46864)
T1 sequence: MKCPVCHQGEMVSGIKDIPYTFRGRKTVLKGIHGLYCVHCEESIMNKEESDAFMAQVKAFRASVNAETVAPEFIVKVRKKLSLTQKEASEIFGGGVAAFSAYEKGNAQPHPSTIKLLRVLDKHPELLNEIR
Test: EMSA
Settings: 20 min at room temperature, binding buffer

For “TGAACGTTGGTCAGACCTTGCAGGTGGGTAATGCTTCCGGTACGCCAATCACTGGCGGAAATGCCATTACCCAGGCCGACGCAGCAGAGCAAGGAGTTGTGATCAAGCCTGCACAAAATTCCACCGTTGCTGTTGCGTCGCAACCGACAATTACGTATTCTGAGTCTTCGGGTGAACAGAGTGCT (double strand) [PrpoS (Suppl. Fig. 3b probe)]”, the binding was “no binding”.

— article PMC3097263
